Assay results: article PMC7102939, “N 1-Methylpseudouridine substitution enhances the performance of synthetic mRNA switches in cells”

B1: 2x MS2 aptamer, native U (structured_RNA)
RNA: GGGAGCAGGUGAGGAUCACCCAUCUGCCACGAGCGAGGUGAGGAUCACCCAUCUCGCUCGUGUUCCC
B2: 2x MS2 aptamer, m1Ψ (structured_RNA)
RNA: B1 RNA
modifications: all U replaced by N1-methylpseudouridine

What was measured:
[1] = target: T1, MS2CP (MS2 coat protein) (bacteriophage MS2, UniProt P03612 2-130); assay: EMSA; 6 mM Mg2+, 2 mM spermidine; EMSA, 1 uM RNA, 4 C 30 min, 12% native PAGE at 4 C; 1x from 5x buffer: U1A 20 mM HEPES pH 7.5, 80 mM KCl, 20 mM NaCl, 2 mM DTT; MS2CP 40 mM HEPES pH 7.5, 10 mM; settings: protein: recombinant; tags: His; chain copies: 2; two hairpins
T1 sequence (P03612 2-130): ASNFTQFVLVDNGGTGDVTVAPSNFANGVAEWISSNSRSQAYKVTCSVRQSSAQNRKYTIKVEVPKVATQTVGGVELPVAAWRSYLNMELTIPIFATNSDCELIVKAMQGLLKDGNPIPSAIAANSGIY

[2] = target: T1, MS2CP (MS2 coat protein); assay: EMSA; 6 mM Mg2+, 2 mM spermidine; affinity similar to native U; EMSA, 1 uM RNA, 4 C 30 min, 12% native PAGE at 4 C; 1x from 5x buffer: U1A 20 mM HEPES pH 7.5, 80 mM KCl, 20 mM NaCl, 2 mM DTT; MS2CP 40 mM HEPES pH 7.5, 10 mM; settings: protein: recombinant; tags: His; chain copies: 2; two hairpins

| Binder | binding result [1] | binding result [2] |
| --- | --- | --- |
| B1 | binds | – |
| B2 | – | binds |
